This note sets out measurements from US20230357367A1.

Like-named read-outs stand apart in the source and are kept apart here.

Holding throughout (test): cell-based or functional assay
Experiment [1] addresses SARS-CoV-2 Omicron BA.1 Spike on virus particles (SARS-CoV-2).
The target in experiment [2] is SARS-CoV-2 Delta Spike on virus particles (SARS-CoV-2).
Experiment [3] deals with SARS-CoV-2 Omicron BA.2.12.1 Spike on pseudovirus (SARS-CoV-2).
The target of experiment [4] is SARS-CoV-2 Omicron BA.2 Spike on pseudovirus (SARS-CoV-2).
The target in experiment [5] is SARS-CoV-2 Omicron BA.1 Spike on virus particles (SARS-CoV-2). The source holds these as a separate data set.
Experiment [6] concerns the target SARS-CoV-2 Omicron BA.4/5 Spike on pseudovirus (SARS-CoV-2).
Experiment [7] addresses SARS-CoV-2 Delta Spike on virus particles (SARS-CoV-2). The source holds these as a separate data set.
The target of experiment [8] is SARS-CoV-2 Omicron BA.2.12.1 Spike on pseudovirus (SARS-CoV-2). This is another data set of the same source.
Experiment [9] addresses SARS-CoV-2 Omicron BA.2 Spike on pseudovirus (SARS-CoV-2). The source holds these as a separate data set.
Experiment [10] has as its target SARS-CoV-2 Omicron BA.4/5 Spike on pseudovirus (SARS-CoV-2). This is another data set of the same source.
Experiment [11] concerns the target spike (SARS-CoV-2, BA.2) (SARS-CoV-2).

With AZD8895 (antibody), the IC50, pseudovirus neutralization in experiment [1] came out at 1.16 µg/mL; in experiment [2], 0.0005 µg/mL; in [3] it was 0.415 µg/mL; in experiment [4] it was 0.608 µg/mL. Besides, the % neutralization at 4.5 µg/ml, pseudovirus in experiment [5] was determined as 96.5%; in experiment [6], 25.8%; in experiment [7] it was 102%; in experiment [8], 94.2%; in [9], 93.9%.

In the case of “Sotrovimab VH/VL (human IgG1 molecule expressing the same variable regions of Sotrovimab) (antibody)”, the IC50, pseudovirus neutralization is 0.0633 µg/mL in experiment [1]; 0.666 µg/mL in [10]; 0.0123 µg/mL in [2]; 0.714 µg/mL in [3]; 0.393 µg/mL in [4]; above 4.5 µg/mL in experiment [6]. In addition, the figures for the IC50, pseudovirus neutralization in experiment [7], in [8] and in experiment [9] were 0.065 µg/mL, 1.2 µg/mL and 0.704 µg/mL, respectively. Moreover, the % neutralization at 4.5 µg/ml, pseudovirus in experiment [5] worked out at 99.4%; in experiment [6], 60.5%; in experiment [7], 101%; in [8], 76.9%; in [9] it was 73.1%. The IC50, live virus neutralization in [5] amounted to 0.411 µg/mL; in [7], 0.0579 µg/mL. Besides, the Neutralization - IC50, pseudovirus in [6] stood at 0.424 µg/mL.

Take sotrovimab VH/VL-huIgG1 (antibody): the EC50, pseudovirus neutralization, Vero E6 in experiment [11] amounted to 0.862 µg/mL.

In the case of AZD1061 (antibody), the IC50, pseudovirus neutralization in experiment [1] was 1.22 µg/mL; in experiment [10] it was 0.0412 µg/mL; in [2], 0.0059 µg/mL; in experiment [3], 0.0051 µg/mL; in experiment [4], 0.0058 µg/mL. Further, the % neutralization at 4.5 µg/ml, pseudovirus in [5] was determined as 83.9%; in [6] it was 96.7%; in experiment [7] it was 100%; in experiment [8], 99.8%; in experiment [9] it was 99.7%.

For the substance sotrovimab VH/VL-hamIgG2a (antibody), the EC50, pseudovirus neutralization, Vero E6 in experiment [11] turned out to be 0.361 µg/mL.

Substance Bebtelovimab (antibody) returned a Neutralization - IC50, pseudovirus in [6] of 0.0003 µg/mL.
